Publication PMC8533160, “First Crystal Structure of Bacterial Oligopeptidase B in an Intermediate State: The Roles of the Hinge Region Modification and Spermine” (Biology, 2021)

How the values were obtained:
[1] = biological target: T1, PSP (oligopeptidase B from Serratia proteomaculans) (Serratia proteamaculans, UniProt B3VI58); assay: differential scanning calorimetry; assay type: binding; settings: 2 mM spermine; 25 mM Na-phosphate, pH 7.8; 2 mg/mL protein
T1 construct: gene opdB; recombinant from E. coli BL21(DE3); 685 residues with tag; 76 kDa; monomer

[2] = biological target: T1, PSP (oligopeptidase B from Serratia proteomaculans); assay: initial rate of BAPNA hydrolysis; assay type: biochemical; settings: read-out: % inhibition at 5 mM
[3] = test system: N=C(N)NCCCC(NC(=O)c1ccccc1)C(=O)Nc1ccc([N+](=O)[O-])cc1; assay: purified protein; assay type: biochemical, Serratia proteamaculans; settings: 0.1 M Tris-HCl, pH 8.0, 2% DMSO, 25 °C
[4] = test system: N=C(N)NCCC[C@H](NC(=O)[C@H](CCCCN)NC(=O)OCc1ccccc1)C(=O)Nc1ccc([N+](=O)[O-])cc1; assay: purified protein; assay type: biochemical, Serratia proteamaculans; settings: 0.1 M Tris-HCl, pH 8.0, 2% DMSO, 25 °C
[5] = test system: N=C(N)NCCC[C@H](NC(=O)OCc1ccccc1)C(=O)N[C@@H](CCCNC(=N)N)C(=O)Nc1ccc([N+](=O)[O-])cc1; assay: purified protein; assay type: biochemical, Serratia proteamaculans; settings: 0.1 M Tris-HCl, pH 8.0, 2% DMSO, 25 °C

Row | Compound | dTmax [1] | inhibition at 5000 µM [2] | Km [3] | kcat [3] | kcat/Km [3] | Km [4] | kcat [4] | kcat/Km [4] | Km [5] | kcat [5] | kcat/Km [5]
1 | NCCCNCCCCNCCCN [spermine] | 1 degree | 20% |  |  |  |  |  |  |  |  | 
2 | PSP (oligopeptidase B from Serratia proteomaculans) (Serratia proteamaculans) |  |  | 78.1 µM | 13.2 s⁻¹ | 168000 M⁻¹ s⁻¹ | 20.8 µM | 50.8 s⁻¹ | 2.43e+06 M⁻¹ s⁻¹ | 4.35 µM | 36.4 s⁻¹ | 8.35e+06 M⁻¹ s⁻¹
